B1: Isoform 1 of Myotubularin-related protein 9 (Homo sapiens), Q96QG7-1 (parent)
chain: MEFAELIKTPRVDNVVLHRPFYPAVEGTLCLTGHHLILSSRQDNTEELWLLHSNIDAIDKRFVGSLGTIIIKCKDFRIIQLDIPGMEECLNIASSIEALSTLDSITLMYPFFYRPMFEVIEDGWHSFLPEQEFELYSSATSEWRLSYVNKEFAVCPSYPPIVTVPKSIDDEALRKVATFRHGGRFPVLSYYHKKNGMVIMRSGQPLTGTNGRRCKEDEKLINATLRAGKRGYIIDTRSLNVAQQTRAKGGGFEQEAHYPQWRRIHKSIERYHILQESLIKLVEACNDQTHNMDRWLSKLEASNWLTHIKEILTTACLAAQCIDREGASILIHGTEGTDSTLQVTSLAQIILEPRSRTIRGFEALIEREWLQAGHPFQQRCAQSAYCNTKQKWEAPVFLLFLDCVWQILRQFPCSFEFNENFLIMLFEHAYASQFGTFLGNNESERCKLKLQQKTMSLWSWVNQPSELSKFTNPLFEANNLVIWPSVAPQSLPLWEGIFLRWNRSSKYLDEAYEEMVNIIEYNKELQAKVNILRRQLAELETEDGMQESP
partner: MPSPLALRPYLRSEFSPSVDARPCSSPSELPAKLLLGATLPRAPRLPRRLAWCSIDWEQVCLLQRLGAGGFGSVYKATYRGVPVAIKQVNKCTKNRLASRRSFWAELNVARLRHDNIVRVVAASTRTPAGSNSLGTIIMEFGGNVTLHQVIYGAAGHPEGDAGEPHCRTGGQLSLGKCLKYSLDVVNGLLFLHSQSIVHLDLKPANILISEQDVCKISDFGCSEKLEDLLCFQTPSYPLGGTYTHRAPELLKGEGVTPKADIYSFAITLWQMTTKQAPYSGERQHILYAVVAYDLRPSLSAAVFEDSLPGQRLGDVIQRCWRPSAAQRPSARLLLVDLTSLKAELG
B2: Iron-sulfur cluster co-chaperone protein HscB (Homo sapiens), Q8IWL3 (parent)
chain: MWRGRAGALLRVWGFWPTGVPRRRPLSCDAASQAGSNYPRCWNCGGPWGPGREDRFFCPQCRALQAPDPTRDYFSLMDCNRSFRVDTAKLQHRYQQLQRLVHPDFFSQRSQTEKDFSEKHSTLVNDAYKTLLAPLSRGLYLLKLHGIEIPERTDYEMDRQFLIEIMEINEKLAEAESEAAMKEIESIVKAKQKEFTDNVSSAFEQDDFEEAKEILTKMRYFSNIEEKIKLKKIPL
B3: A-kinase anchor protein 17A (Homo sapiens), Q02040 (parent)
chain: MAAATIVHDTSEAVELCPAYGLYLKPITKMTISVALPQLKQPGKSISNWEVMERLKGMVQNHQFSTLRISKSTMDFIRFEGEVENKSLVKSFLACLDGKTIKLSGFSDILKVRAAEFKIDFPTRHDWDSFFRDAKDMNETLPGERPDTIHLEGLPCKWFALKESGSEKPSEDVLVKVFEKFGEIRNVDIPMLDPYREEMTGRNFHTFSFGGHLNFEAYVQYREYMGFIQAMSALRGMKLMYKGEDGKAVACNIKVSFDSTKHLSDASIKKRQLERQKLQELEQQREEQKRREKEAEERQRAEERKQKELEELERERKREEKLRKREQKQRDRELRRNQKKLEKLQAEEQKQLQEKIKLEERKLLLAQRNLQSIRLIAELLSRAKAVKLREQEQKEEKLRLQQQEERRRLQEAELRRVEEEKERALGLQRKERELRERLLSILLSKKPDDSHTHDELGVAHADLLQPVLDILQTVSSGCVSATTLHPLGGQPPAGAPKESPAHPEADGAPKSVNGSVAEEAPCKEVQSSCRVVPEDGSPEKRCPGGVLSCIPDNNQQPKGIPACEQNVSRKDTRSEQDKCNREPSKGRGRATGDGLADRHKRERSRARRASSREDGRPRKERRPHKKHAYKDDSPRRRSTSPDHTRSRRSHSKDRHRRERSRERRGSASRKHSRHRRRSERSRSRSPSRHRSTWNR
B4: Oxidative stress-induced growth inhibitor 1 (Homo sapiens), Q9UJX0 (parent)
chain: MSSSRKDHLGASSSEPLPVIIVGNGPSGICLSYLLSGYTPYTKPDAIHPHPLLQRKLTEAPGVSILDQDLDYLSEGLEGRSQSPVALLFDALLRPDTDFGGNMKSVLTWKHRKEHAIPHVVLGRNLPGGAWHSIEGSMVILSQGQWMGLPDLEVKDWMQKKRRGLRNSRATAGDIAHYYRDYVVKKGLGHNFVSGAVVTAVEWGTPDPSSCGAQDSSPLFQVSGFLTRNQAQQPFSLWARNVVLATGTFDSPARLGIPGEALPFIHHELSALEAATRVGAVTPASDPVLIIGAGLSAADAVLYARHYNIPVIHAFRRAVDDPGLVFNQLPKMLYPEYHKVHQMMREQSILSPSPYEGYRSLPRHQLLCFKEDCQAVFQDLEGVEKVFGVSLVLVLIGSHPDLSFLPGAGADFAVDPDQPLSAKRNPIDVDPFTYQSTRQEGLYAMGPLAGDNFVRFVQGGALAVASSLLRKETRKPP
B5: SH2 domain-containing protein 4A (Homo sapiens), Q9H788 (parent)
chain: MLKQILSEMYIDPDLLAELSEEQKQILFFKMREEQIRRWKEREAAMERKESLPVKPRPKKENGKSVHWKLGADKEVWVWVMGEHHLDKPYDVLCNEIIAERARLKAEQEAEEPRKTHSEEFTNSLKTKSQYHDLQAPDNQQTKDIWKKVAEKEELEQGSRPAPTLEEEKIRSLSSSSRNIQQMLADSINRMKAYAFHQKKESMKKKQDEEINQIEEERTKQICKSWKEDSEWQASLRKSKAADEKRRSLAKQAREDYKRLSLGAQKGRGGERLQSPLRVPQKPERPPLPPKPQFLNSGAYPQKPLRNQGVVRTLSSSAQEDIIRWFKEEQLPLRAGYQKTSDTIAPWFHGILTLKKANELLLSTGMPGSFLIRVSERIKGYALSYLSEDGCKHFLIDASADAYSFLGVDQLQHATLADLVEYHKEEPITSLGKELLLYPCGQQDQLPDYLELFE
B6: Methylmalonyl-CoA epimerase, mitochondrial (Homo sapiens), Q96PE7 (parent)
chain: MARVLKAAAANAVGLFSRLQAPIPTVRASSTSQPLDQVTGSVWNLGRLNHVAIAVPDLEKAAAFYKNILGAQVSEAVPLPEHGVSVVFVNLGNTKMELLHPLGRDSPIAGFLQKNKAGGMHHICIEVDNINAAVMDLKKKKIRSLSEEVKIGAHGKPVIFLHPKDCGGVLVELEQA
partner: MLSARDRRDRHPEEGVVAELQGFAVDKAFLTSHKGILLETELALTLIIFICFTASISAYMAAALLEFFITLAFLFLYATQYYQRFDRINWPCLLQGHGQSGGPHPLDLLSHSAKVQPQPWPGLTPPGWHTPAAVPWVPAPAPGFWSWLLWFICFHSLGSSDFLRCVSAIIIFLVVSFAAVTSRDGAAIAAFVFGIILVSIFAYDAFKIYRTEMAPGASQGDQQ
B7: Nucleoporin p54 (Homo sapiens), Q7Z3B4 (parent)
chain: MAFNFGAPSGTSGTAAATAAPAGGFGGFGTTSTTAGSAFSFSAPTNTGTTGLFGGTQNKGFGFGTGFGTTTGTSTGLGTGLGTGLGFGGFNTQQQQQTTLGGLFSQPTQAPTQSNQLINTASALSAPTLLGDERDAILAKWNQLQAFWGTGKGYFNNNIPPVEFTQENPFCRFKAVGYSCMPSNKDEDGLVVLVFNKKETEIRSQQQQLVESLHKVLGGNQTLTVNVEGTKTLPDDQTEVVIYVVERSPNGTSRRVPATTLYAHFEQANIKTQLQQLGVTLSMTRTELSPAQIKQLLQNPPAGVDPIIWEQAKVDNPDSEKLIPVPMVGFKELLRRLKVQDQMTKQHQTRLDIISEDISELQKNQTTSVAKIAQYKRKLMDLSHRTLQVLIKQEIQRKSGYAIQADEEQLRVQLDTIQGELNAPTQFKGRLNELMSQIRMQNHFGAVRSEERYYIDADLLREIKQHLKQQQEGLSHLISIIKDDLEDIKLVEHGLNETIHIRGGVFS

Variants of: B1
Details: with mos_human MOS

| Variant | effect of a mutation on the interaction |
| --- | --- |
| F127I | with no effect |

Variants of: B1
Details: with mos_human MOS
Remark: another data set of the same source

| Variant | effect of a mutation on the interaction |
| --- | --- |
| S126C | with no effect |

Variants of: B2
Details: with atrap_human AGTRAP

| Variant | effect of a mutation on the interaction |
| --- | --- |
| I163M | disrupting interaction strength |

Variants of: B3
Details: with cep70_human CEP70, Q8NHQ1
cep70_human CEP70, Q8NHQ1, sequence (Q8NHQ1 whole entry): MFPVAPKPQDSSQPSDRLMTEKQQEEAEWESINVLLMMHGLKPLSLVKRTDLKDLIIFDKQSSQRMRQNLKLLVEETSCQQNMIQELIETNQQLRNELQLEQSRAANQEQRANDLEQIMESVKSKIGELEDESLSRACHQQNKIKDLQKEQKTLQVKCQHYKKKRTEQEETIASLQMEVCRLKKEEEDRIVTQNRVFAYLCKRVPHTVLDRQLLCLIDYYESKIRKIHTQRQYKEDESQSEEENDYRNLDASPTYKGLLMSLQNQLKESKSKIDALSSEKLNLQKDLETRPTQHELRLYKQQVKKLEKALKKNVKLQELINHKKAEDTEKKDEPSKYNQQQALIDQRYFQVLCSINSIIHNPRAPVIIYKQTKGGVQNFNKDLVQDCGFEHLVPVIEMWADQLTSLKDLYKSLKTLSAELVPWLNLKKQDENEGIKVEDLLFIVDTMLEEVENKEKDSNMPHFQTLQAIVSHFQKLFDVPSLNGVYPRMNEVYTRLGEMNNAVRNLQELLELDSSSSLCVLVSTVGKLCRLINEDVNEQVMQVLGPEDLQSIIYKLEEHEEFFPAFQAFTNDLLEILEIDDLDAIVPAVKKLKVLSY

| Variant | effect of a mutation on the interaction |
| --- | --- |
| R298K | with no effect |
| R675C | with no effect |

Variants of: B4
Details: with htf4_human TCF12, Q99081
htf4_human TCF12, Q99081, sequence (Q99081 whole entry): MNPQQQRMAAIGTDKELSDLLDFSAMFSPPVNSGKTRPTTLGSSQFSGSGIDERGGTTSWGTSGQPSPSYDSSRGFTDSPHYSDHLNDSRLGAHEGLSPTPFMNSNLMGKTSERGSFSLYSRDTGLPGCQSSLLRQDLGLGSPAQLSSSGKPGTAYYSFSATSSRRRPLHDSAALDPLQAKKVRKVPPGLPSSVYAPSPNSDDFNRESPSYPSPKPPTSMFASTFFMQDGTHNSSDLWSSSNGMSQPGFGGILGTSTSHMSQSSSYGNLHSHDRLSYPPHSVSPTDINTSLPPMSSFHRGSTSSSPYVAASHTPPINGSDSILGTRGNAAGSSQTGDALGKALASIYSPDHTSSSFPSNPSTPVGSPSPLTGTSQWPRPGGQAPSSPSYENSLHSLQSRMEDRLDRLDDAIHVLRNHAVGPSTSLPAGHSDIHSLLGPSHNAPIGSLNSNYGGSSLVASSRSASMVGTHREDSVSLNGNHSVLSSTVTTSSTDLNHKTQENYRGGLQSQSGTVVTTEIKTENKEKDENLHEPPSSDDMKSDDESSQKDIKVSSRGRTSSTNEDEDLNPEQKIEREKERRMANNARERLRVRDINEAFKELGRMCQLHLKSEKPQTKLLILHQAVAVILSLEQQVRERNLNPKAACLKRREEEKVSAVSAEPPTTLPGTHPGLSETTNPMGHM

| Variant | effect of a mutation on the interaction |
| --- | --- |
| S236L | disrupting interaction strength |
| D320N | with no effect |

Variants of: B4
Details: with itf2_human TCF4, P15884
itf2_human TCF4, P15884, sequence (P15884 whole entry): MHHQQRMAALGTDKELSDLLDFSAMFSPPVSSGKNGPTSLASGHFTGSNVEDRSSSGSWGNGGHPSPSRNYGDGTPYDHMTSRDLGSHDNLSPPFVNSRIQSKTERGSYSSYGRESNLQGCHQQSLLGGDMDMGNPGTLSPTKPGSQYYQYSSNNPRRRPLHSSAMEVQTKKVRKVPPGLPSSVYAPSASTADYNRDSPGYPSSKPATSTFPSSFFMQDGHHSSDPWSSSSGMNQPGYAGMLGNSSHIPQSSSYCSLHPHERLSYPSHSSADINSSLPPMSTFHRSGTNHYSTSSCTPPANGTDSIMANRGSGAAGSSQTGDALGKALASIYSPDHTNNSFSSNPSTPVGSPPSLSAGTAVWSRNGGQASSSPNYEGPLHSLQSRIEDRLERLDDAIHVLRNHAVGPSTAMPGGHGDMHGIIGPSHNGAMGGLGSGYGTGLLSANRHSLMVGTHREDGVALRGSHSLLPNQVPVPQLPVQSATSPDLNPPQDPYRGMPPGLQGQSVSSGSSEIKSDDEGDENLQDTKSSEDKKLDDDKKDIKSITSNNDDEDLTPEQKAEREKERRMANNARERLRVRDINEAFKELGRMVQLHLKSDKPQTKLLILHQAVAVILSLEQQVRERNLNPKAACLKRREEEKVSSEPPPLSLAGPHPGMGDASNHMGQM

| Variant | effect of a mutation on the interaction |
| --- | --- |
| S236L | with no effect |
| D320N | with no effect |

Variants of: B4
Details: with ikzf3_human IKZF3, Q9UKT9
ikzf3_human IKZF3, Q9UKT9, sequence (Q9UKT9 whole entry): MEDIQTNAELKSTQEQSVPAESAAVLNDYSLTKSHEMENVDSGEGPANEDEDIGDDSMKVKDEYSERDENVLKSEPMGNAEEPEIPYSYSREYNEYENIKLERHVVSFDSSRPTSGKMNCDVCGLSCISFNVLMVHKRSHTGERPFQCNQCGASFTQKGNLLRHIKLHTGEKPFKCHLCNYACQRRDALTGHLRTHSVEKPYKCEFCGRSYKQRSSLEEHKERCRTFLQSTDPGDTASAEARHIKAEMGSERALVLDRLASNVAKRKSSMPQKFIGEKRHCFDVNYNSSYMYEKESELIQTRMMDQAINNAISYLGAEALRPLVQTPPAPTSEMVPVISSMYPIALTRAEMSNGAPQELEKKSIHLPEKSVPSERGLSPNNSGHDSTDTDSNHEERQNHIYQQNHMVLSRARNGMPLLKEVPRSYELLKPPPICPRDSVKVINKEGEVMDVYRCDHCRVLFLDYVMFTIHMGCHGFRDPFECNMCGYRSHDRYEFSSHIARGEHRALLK

| Variant | effect of a mutation on the interaction |
| --- | --- |
| S236L | disrupting interaction strength |
| D320N | with no effect |

Variants of: B5
Details: with tfp11_human TFIP11, Q9UBB9
tfp11_human TFIP11, Q9UBB9, sequence (Q9UBB9 whole entry): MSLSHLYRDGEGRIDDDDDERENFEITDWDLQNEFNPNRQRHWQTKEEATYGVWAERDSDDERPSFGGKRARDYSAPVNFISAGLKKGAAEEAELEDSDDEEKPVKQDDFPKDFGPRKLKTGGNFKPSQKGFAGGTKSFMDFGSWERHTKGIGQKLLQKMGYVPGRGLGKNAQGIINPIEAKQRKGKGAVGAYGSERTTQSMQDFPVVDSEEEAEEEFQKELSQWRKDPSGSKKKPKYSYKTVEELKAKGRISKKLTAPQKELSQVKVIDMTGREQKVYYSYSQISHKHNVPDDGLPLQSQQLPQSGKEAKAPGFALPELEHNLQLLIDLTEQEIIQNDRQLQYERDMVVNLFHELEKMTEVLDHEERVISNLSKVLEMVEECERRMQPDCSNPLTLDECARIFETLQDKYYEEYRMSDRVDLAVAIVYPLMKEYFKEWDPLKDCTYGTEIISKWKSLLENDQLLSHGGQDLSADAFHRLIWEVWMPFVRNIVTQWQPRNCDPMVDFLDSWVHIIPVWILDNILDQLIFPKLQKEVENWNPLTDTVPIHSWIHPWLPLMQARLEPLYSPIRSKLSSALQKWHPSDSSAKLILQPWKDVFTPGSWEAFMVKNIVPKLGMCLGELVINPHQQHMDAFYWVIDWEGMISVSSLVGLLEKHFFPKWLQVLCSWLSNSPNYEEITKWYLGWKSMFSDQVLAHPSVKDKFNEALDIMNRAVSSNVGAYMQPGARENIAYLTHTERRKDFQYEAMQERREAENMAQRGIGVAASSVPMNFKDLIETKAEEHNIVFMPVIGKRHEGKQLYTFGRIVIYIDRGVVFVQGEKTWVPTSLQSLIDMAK

| Variant | effect of a mutation on the interaction |
| --- | --- |
| E216G | with no effect |
| G263A | with no effect |
| K303R | with no effect |

Variants of: B5
Details: with tacc1_human TACC1, O75410
tacc1_human TACC1, O75410, sequence (O75410 whole entry): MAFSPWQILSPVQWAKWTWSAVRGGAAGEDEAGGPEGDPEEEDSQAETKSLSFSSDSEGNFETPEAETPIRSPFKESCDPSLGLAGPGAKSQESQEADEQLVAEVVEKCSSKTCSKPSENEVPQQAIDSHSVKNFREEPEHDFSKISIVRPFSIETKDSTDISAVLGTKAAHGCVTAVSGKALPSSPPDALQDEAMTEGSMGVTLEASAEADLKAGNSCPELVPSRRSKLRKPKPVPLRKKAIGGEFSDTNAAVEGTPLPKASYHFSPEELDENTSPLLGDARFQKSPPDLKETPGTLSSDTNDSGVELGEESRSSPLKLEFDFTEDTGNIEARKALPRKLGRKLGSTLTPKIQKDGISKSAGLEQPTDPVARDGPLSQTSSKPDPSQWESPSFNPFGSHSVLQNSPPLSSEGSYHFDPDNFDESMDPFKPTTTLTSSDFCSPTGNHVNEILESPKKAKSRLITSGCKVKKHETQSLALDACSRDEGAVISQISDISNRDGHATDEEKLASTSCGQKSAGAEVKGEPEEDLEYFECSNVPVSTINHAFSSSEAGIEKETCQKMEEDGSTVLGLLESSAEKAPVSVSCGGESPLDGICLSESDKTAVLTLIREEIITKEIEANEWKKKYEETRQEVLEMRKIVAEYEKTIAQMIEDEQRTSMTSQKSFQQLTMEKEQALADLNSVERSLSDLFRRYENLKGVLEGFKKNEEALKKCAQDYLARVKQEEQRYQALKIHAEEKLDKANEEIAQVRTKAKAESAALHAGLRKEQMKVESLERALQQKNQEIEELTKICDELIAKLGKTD

| Variant | effect of a mutation on the interaction |
| --- | --- |
| E216G | with no effect |
| G263A | with no effect |
| K303R | with no effect |

Variants of: B5
Details: with ldoc1_human LDOC1, O95751
ldoc1_human LDOC1, O95751, sequence (O95751 whole entry): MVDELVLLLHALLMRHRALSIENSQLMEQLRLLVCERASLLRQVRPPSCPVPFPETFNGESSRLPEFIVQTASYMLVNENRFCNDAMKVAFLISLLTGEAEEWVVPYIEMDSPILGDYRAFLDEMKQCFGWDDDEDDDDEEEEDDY

| Variant | effect of a mutation on the interaction |
| --- | --- |
| E216G | with no effect |
| G263A | with no effect |
| K303R | with no effect |

Variants of: B6
Details: with cklf5_human CMTM5, Q96DZ9

| Variant | effect of a mutation on the interaction |
| --- | --- |
| A76V | with no effect |
| R143H | with no effect |

Variants of: B7
Details: with nup62_human NUP62, P37198

| Variant | effect of a mutation on the interaction |
| --- | --- |
| R385K | with no effect |

Variants of: B7
Details: with nup58_human NUP58, Q9BVL2
nup58_human NUP58, Q9BVL2, sequence (Q9BVL2 whole entry): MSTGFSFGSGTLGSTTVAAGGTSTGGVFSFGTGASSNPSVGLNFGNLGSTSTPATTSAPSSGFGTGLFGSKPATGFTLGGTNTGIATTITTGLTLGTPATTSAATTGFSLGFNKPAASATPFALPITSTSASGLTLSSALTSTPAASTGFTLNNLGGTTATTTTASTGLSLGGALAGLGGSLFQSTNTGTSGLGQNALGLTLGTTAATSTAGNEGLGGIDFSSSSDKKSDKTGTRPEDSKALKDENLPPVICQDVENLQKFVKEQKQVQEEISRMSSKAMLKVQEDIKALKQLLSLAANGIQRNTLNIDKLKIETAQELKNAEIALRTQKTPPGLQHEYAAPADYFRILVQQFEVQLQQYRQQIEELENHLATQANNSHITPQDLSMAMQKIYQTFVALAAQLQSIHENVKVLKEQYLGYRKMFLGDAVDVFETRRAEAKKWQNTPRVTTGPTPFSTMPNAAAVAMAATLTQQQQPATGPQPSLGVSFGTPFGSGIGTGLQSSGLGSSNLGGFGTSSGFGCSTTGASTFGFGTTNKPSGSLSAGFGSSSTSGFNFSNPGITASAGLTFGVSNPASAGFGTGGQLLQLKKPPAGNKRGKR

| Variant | effect of a mutation on the interaction |
| --- | --- |
| R385K | with no effect |

Variants of: B7
Details: with hgs_human HGS

| Variant | effect of a mutation on the interaction |
| --- | --- |
| R385K | with no effect |

Variants of: B7
Details: with KRT15, P19012

| Variant | effect of a mutation on the interaction |
| --- | --- |
| R385K | with no effect |
